In patent US20060067930A1 (Genentech, published 2006):

Molecular target: T1, human FcγRIII (V158)
T1 construct: also called FcγRIIIA-Val158; CD16
Experiment: ELISA of 2H7 variants binding to human FcγRIII (V158)

T1 sequence (chain, as listed by the source limits assumed): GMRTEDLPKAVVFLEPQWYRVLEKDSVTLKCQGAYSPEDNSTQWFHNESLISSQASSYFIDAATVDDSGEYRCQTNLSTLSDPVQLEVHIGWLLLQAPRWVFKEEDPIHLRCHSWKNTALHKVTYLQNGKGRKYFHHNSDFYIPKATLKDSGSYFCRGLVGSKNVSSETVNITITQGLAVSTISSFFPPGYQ

Row | binding result | EC50 (read off the curve) [µg/mL] | Binder
1 | binds |  | 2H7.v16 (antibody, human IgG1, kappa, Humanized anti-CD20 antibody with no Fc changes; also called humanized 2H7v.16; 2H7 version 16) light chain: DIQMTQSPSSLSASVGDRVTITCRASSSVSYMHWYQQKPGKAPKPLIYAPSNLASGVPSRFSGSGSGTDFTLTISSLQPEDFATYYCQQWSFNPPTFGQGTKVEIKRTVAAPSVFIFPPSDEQLKSGTASVVCLLNNFYPREAKVQWKVDNALQSGNSQESVTEQDSKDSTYSLSSTLTLSKADYEKHKVYACEVTHQGLSSPVTKSFNRGEC heavy chain: not shown
2 |  | ~0.6 | 2H7.v375 (antibody, human IgG1, kappa, copies: 2 + 2) light: DIQMTQSPSSLSASVGDRVTITCRASSSVSYMHWYQQKPGKAPKPLIYAPSNLASGVPSRFSGSGSGTDFTLTISSLQPEDFATYYCQQWSFNPPTFGQGTKVEIKRTVAAPSVFIFPPSDEQLKSGTASVVCLLNNFYPREAKVQWKVDNALQSGNSQESVTEQDSKDSTYSLSSTLTLSKADYEKHKVYACEVTHQGLSSPVTKSFNRGEC heavy: not shown
